{"source": "patent US20090105116A1", "key": {"human α-thrombin (human) [1]": {"biological_target": "human α-thrombin (human) (UniProt P00734)", "assay": "cell-based or functional assay"}, "human α-thrombin (human) [2]": {"biological_target": "human α-thrombin (human) (UniProt P00734)", "assay": "amidolytic assay with chromogenic substrate S-2238, Lineweaver-Burk, 25° C."}, "[3]": {"biological_target": "P3182, Bbs-R-(D-Pip)-Gly-Glu-Gln-Lys-Leu-Ile-Ser-Glu-Glu-Asp-Leu-Gly-Asp-Phe-Glu-Glu-Ile-Pro-Glu-Glu-Tyr-Leu-Gln", "sequence (peptide, as listed by the source, form in doubt)": "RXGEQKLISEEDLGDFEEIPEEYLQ", "assay": "cell-based or functional assay"}}, "data": [{"substance": "P3162, Bbs-R-(D-Pip)-Gly-(Ser-Pro-His-Tyr(P)-Glu-Lys-Val-Ser-Gly)2-Asp-Phe-Glu-Glu-Ile-Pro-Glu-Glu-Tyr-Leu-Gln (peptide)", "values": [{"measurement": "IC50, nM (25° C.), fibrinogen clotting assay", "setting": "human α-thrombin (human) [1]", "result": 19, "unit": "nM"}]}, {"substance": "P3170, Bbs-R-(D-Pip)-Gly-(Ser-Pro-His-Tyr(P)-Glu-Lys-Val-Ser-Gly)-Asp-Phe-Glu-Glu-Ile-Pro-Glu-Glu-Tyr-Leu-Gln (peptide)", "values": [{"measurement": "IC50, nM (25° C.), fibrinogen clotting assay", "setting": "human α-thrombin (human) [1]", "result": 0.7, "unit": "nM"}, {"measurement": "Ki", "setting": "human α-thrombin (human) [2]", "result": 1.5, "unit": "nM"}]}, {"substance": "P3172-P3165, disulfide-linked Bbs-Arg-(D-Pip)-Gly-Cys...Cys-(Gly-Ser)8-Gly-Asp-Phe-Glu-Glu-Ile-Pro-Glu-Glu-Tyr-Leu-Gln (peptide)", "values": [{"measurement": "IC50, nM (37° C.), fibrinogen clotting assay", "setting": "human α-thrombin (human) [1]", "result": 1.1, "unit": "nM"}]}, {"substance": "P3291, Bbs-Arg-dPip-Gly-Arg-Lys-Ser-Leu-Thr-Ile-Tyr-Ala-Gln-Val-Gln-Lys-Gly-Asp-Phe-Glu-Glu-Ile-Pro-Glu-Glu-Tyr-Leu-Gln (peptide)", "values": [{"measurement": "IC50, nM, fibrinogen clotting assay (the text says 25° C.)", "setting": "human α-thrombin (human) [1]", "result": 7, "unit": "nM"}]}, {"substance": "anti-c-myc antibody 9E10 (Sigma)", "values": [{"measurement": "clotting onset time with 150 nM peptide, 0.6 nM thrombin and 1.2 µM antibody", "setting": "[3]", "result": 230, "unit": "s"}]}]}
